The text below walks through data of patent US20060264378A1 (BIOKINE THERAPEUTICS, published 2006).

Numbered stars: 1 amine (or outer) side, 2 acyl side, 3 side chain; on linkers, the order of the positions; unused ones are H or OH. Bridge positions count the residues as written; N and C are the ends. Square brackets hold non-standard residues; d marks the D form. Ends that are not written are not given here. * marks the point of attachment. deaminoTMG = tetramethylguanyl on 5-aminopentanoyl (deaminoTMG-APA, formula II); guanyl = guanyl, N-terminal group, N=C(N)*; 2Nal = N[C@@H](Cc1ccc2ccccc2c1)C(=O)O; Glutaryl = O=C(CCCC(=O)[*:2])[*:1]; Benzoyl(4-F) = O=C(c1ccc(F)cc1)*; dCit = NC(=O)NCCC[C@@H](N)C(=O)O; Cit = NC(=O)NCCC[C@H](N)C(=O)O; Suc = O=C(CCC(=O)[*:2])[*:1]; Ahx = NCCCCCC(=O)O; Ava = NCCCCC(=O)O

The labels stand for the following.
B1: TF18 (peptide)
peptide: XRRXCYXKXPYRXCRX
modifications: N-terminal tetramethylguanyl; Nal (L-3-(2-naphthyl)alanine) at 3; Cit (L-citrulline) at 6 and 12; D-Cit (D-citrulline) at 8; disulfide Cys4-Cys13; C-terminal amide (-NH2)
B2: TF15 (peptide)
peptide: H-RR[2Nal]CY[Cit]K[dE]PYR[Cit]CR-NH2
modifications: disulfide 4-13; also: reduced CH2-NH bond between residues 1 and 2, acetate salt
B3: TC14012 (peptide)
peptide: RRXCYXKXPYRXCR
modifications: X at 3 = Nal (L-3-(2-naphthyl)alanine); X at 6 and 12 = Cit (L-citrulline); X at 8 = D-Cit (D-citrulline); disulfide Cys4-Cys13; free N-terminus (H-); C-terminal amide (-NH2)
notes: Tested as acetate salt
B4: TE14003 (peptide)
peptide: H-RR[2Nal]CYEK[dK]PYR[Cit]CR-OH
modifications: disulfide 4-13 (inferred); not fully specified; printed as H-Arg-Arg-Nal-Cys-Tyr-Glu-Lys-DLys-Pro-Tyr-Arg-Cit-Cys-Arg-OH; also: acetate salt
B5: TE14004 (peptide)
peptide: H-RR[2Nal]CYRE[dK]PYR[Cit]CR-OH
modifications: disulfide 4-13 (inferred); not fully specified; printed as H-Arg-Arg-Nal-Cys-Tyr-Arg-Glu-DLys-Pro-Tyr-Arg-Cit-Cys-Arg-OH; also: acetate salt
B6: TF19 (peptide)
peptide: XRRXCYXKXPYRXCRX
modifications: N-terminal 6-aminohexanoyl (ACA); Nal (L-3-(2-naphthyl)alanine) at 3; Cit (L-citrulline) at 6 and 12; D-Cit (D-citrulline) at 8; disulfide Cys4-Cys13; C-terminal amide (-NH2)

Broadly, the IC50 is the concentration at which inhibition is half-maximal. High values mean weaker potency in that assay, low ones greater potency in that assay.

Sequence of CXCR4 on mouse splenocytes (P70658 whole entry): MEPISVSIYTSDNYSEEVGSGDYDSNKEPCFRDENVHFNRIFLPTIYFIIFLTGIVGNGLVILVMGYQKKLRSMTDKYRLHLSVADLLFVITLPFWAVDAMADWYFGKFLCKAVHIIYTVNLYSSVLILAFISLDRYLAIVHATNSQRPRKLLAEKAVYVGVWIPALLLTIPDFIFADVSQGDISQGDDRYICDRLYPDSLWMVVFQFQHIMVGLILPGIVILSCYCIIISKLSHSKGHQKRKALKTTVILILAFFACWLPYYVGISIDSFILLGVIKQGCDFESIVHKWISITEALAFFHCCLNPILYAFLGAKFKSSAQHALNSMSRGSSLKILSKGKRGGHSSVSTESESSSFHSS

The target in the first assay is T1, CXCR4 receptor (human, UniProt P61073 1-352).
T1 construct: whole, on cells; Endogenous receptor on human cells
T1 sequence (P61073 whole entry): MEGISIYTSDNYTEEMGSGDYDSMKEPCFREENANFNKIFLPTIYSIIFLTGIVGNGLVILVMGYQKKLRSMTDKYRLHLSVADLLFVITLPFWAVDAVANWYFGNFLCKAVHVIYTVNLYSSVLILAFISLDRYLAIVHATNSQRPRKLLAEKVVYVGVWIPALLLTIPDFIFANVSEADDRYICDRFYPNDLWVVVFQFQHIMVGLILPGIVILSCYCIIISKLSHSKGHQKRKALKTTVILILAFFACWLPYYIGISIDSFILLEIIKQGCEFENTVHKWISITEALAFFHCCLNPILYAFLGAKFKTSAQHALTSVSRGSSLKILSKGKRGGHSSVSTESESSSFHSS
The experiment in a line: displacement of 125I-CXCL12 from Jurkat cells, filter binding. Here is the method:
50 μL of Jurkat human T-cell leukemia cells (6×10⁶ cells/mL) suspended in buffer (Dulbecco's PBS solution (pH 7.0) containing 0.5% BSA, 20 mM HEPES), 25 μL of test compounds (Table 2: each compound being synthesized in the form of acetate salt) diluted by buffer and 25 μL of 200 p M 125I-CXCL12 solution were respectively dispensed to each well of the plate, and were subjected to fixation reaction for 1 hour at room temperature. After reaction, suction was made toward the reaction solution by 96 well GF/C filter plate, and each well's radioactivity was measured by top count. As the radioactivity index of 100% when the test compound was not added, and 0% when 100 nM of non-radioisotope-labeled CXCL12 was added, the inhibitory activity of each test compound was measured.
A general note: Loss of bound radioactivity is the signal in a displacement assay; it reports binding, not function.
Molecule Suc-R[2Nal]CY[Cit]K[dE]PYR[Cit]CR-NH2 (disulfide 3-12; also: acetate salt) [TF10] yielded an IC50 of 48 nM.

As for guanyl-RR[2Nal]CY[Cit]K[dE]PYR[Cit]CR-NH2 (disulfide 4-13; also: acetate salt) [TF2], the IC50 came out at 3.3 nM. Still for that read-out and setting: next, H-RE[2Nal]CYRK[dK]PYR[Cit]CR-OH (disulfide 4-13; also: acetate salt) [TE14002]: 680 nM; H-RR[2Nal]CY[dE]K[dCit]PYR[Cit]CR-NH2 (disulfide 4-13 (inferred); also: acetate salt) [TE14012]: 5.4 nM. Glutaryl-R[2Nal]CY[Cit]K[dE]PYR[Cit]CR-NH2 (disulfide 3-12; also: acetate salt) [TF11]: the IC50 was determined as 630 nM. {AZT-Glutaryl}-R[2Nal]CY[Cit]K[dE]PYR[Cit]CR-NH2 (disulfide 3-12; also: acetate salt) [TF14] came in with an IC50 of 49 nM. {2‑fluorobenzoyl}-RR[2Nal]CY[Cit]K[dE]PYR[Cit]CR-NH2 (disulfide 4-13; also: acetate salt) [TF6] displayed an IC50 of 3.9 nM. tetramethylguanyl-R[2Nal]CY[Cit]K[dE]PYR[Cit]CR-NH2 (disulfide 3-12; also: acetate salt) [TF4] registered an IC50 of 9.9 nM. This IC50 is about 2.5-fold higher than that of the molecule before. guanyl-R[2Nal]CY[Cit]K[dE]PYR[Cit]CR-NH2 (disulfide 3-12; also: acetate salt) [TF9] registered an IC50 of 250 nM. Same read-out and setting: next, {2‑desamino‑arginyl}-R[2Nal]CY[Cit]K[dE]PYR[Cit]CR-NH2 (disulfide 3-12; also: acetate salt) [TF8]: 8.2 nM. B1 showed an IC50 of 8 nM. This IC50 and that of the molecule before are within 1.5-fold of each other. Regarding H-RR[2Nal]CYRK[dE]PYR[Cit]CR-OH (disulfide 4-13; also: acetate salt) [TE14005], the IC50 came to 2.2 nM. B2 came in with a half-maximal inhibitory concentration (IC50) of 95 nM. Molecule [Ahx]RR[2Nal]CYRK[dK]PYR[Cit]CR-OH (disulfide 5-14; also: acetate salt) [TF20] showed an IC50 of 3.5 nM.

Consider {nelfinaviryl-Suc}-R[2Nal]CY[Cit]K[dE]PYR[Cit]CR-NH2 (disulfide 3-12; also: acetate salt) [TF13], for which the concentration for half-maximal inhibition (IC50) was found to be 21 nM. The same measure, in the same setting: the result for H-RR[2Nal]CY[dE]K[dE]PYR[Cit]CR-NH2 (disulfide 4-13; also: acetate salt) [TE14013] reads 9.3 nM; that for H-R[2Nal]CY[Cit]K[dE]PYR[Cit]CR-NH2 (disulfide 3-12; also: acetate salt) [TF17], 79 nM; that for {Benzoyl(4-F)}-RR[2Nal]CY[Cit]K[dK]PYR[Cit]CR-NH2 (disulfide 4-13; also: acetate salt) [4F-benzoyl-TN14003], 0.99 nM.

In turn, Ac-RR[2Nal]CY[Cit]K[dE]PYR[Cit]CR-NH2 (disulfide 4-13; also: acetate salt) [TF1] yielded an IC50 of 11 nM. This IC50 lies about 11-fold higher than the previous one. Regarding H-RR[2Nal]CYRK[dK]PYE[Cit]CR-OH (disulfide 4-13 (inferred); also: acetate salt) [TE14006], the IC50 stood at 5.6 nM.

Regarding H-RR[2Nal]CY[Cit]K[dE]PYR[Cit]CR-NH2 (disulfide 4-13; also: acetate salt) [TE14011], the IC50 was 2.9 nM.

With B3, the IC50 is 2.7 nM. In turn, B4 showed an IC50 of 5 nM. This IC50 lies about 1.9-fold higher than the previous one.

H-RR[2Nal]CY[Cit]K[dK]PYR[Cit]CR-NH2 (disulfide 4-13; also: acetate salt, Tested as acetate salt) [TN14003]: the IC50 was found to be 2.6 nM.

tetramethylguanyl-RR[2Nal]CY[Cit]K[dE]PYR[Cit]CR-NH2 (disulfide 4-13; also: acetate salt) [TF3] had an IC50 of 9.6 nM. In the case of B5, the concentration for half-maximal inhibition (IC50) amounted to 6.8 nM. B6: the half-inhibitory concentration (IC50) worked out at 4.5 nM. Regarding {Benzoyl(4-F)}-RR[2Nal]CY[Cit]K[dE]PYR[Cit]CR-NH2 (disulfide 4-13; also: acetate salt) [TF5], the concentration for half-maximal inhibition (IC50) was 2.8 nM. {5‑aminopentanoyl}-R[2Nal]CY[Cit]K[dE]PYR[Cit]CR-NH2 (disulfide 3-12; also: acetate salt) [TF7]: the IC50 was found to be 5.7 nM. For {deaminoTMG-Ava}-R[2Nal]CY[Cit]K[dE]PYR[Cit]CR-NH2 (disulfide 3-12; also: acetate salt) [TF12], the IC50 came out at 4.6 nM.

Another assay concerns the target CXCR4 on mouse splenocytes (mouse, UniProt P70658 1-359). The experiment in a line: cell-based or functional assay.
On to {Benzoyl(4-F)}-RR[2Nal]CY[Cit]K[dK]PYR[Cit]CR-NH2 (disulfide 4-13; also: acetate salt) [4F-benzoyl-TN14003], for which the “IC50 of inhibition of SDF-1-induced migration of mouse splenocytes (Transwell)” value turned out to be 0.54 nM.

For a further assay, the target named is T1, CXCR4 receptor. The experiment in a line: cell-based or functional assay.
{Benzoyl(4-F)}-RR[2Nal]CY[Cit]K[dK]PYR[Cit]CR-NH2 (disulfide 4-13; also: acetate salt) [4F-benzoyl-TN14003]: the IC50 of inhibition of SDF-1α-induced migration of Jurkat cells (Transwell) turned out to be 0.65 nM.
